Consider five molecules from patent US20140087995A1 (published 2014).

The target of assay [1] is T1, rat amylin receptor (rat calcitonin receptor + rat RAMP 3) (rat, UniProt P32214 25-516; Q9JJ73 23-147).
T1 construct: whole, on cells; Membranes of transiently transfected BHK tk'ts 13 cells (Assay VI); also called rAmylin-R; rat amylin 3(a) receptor
T1 sequence (looked up) 1: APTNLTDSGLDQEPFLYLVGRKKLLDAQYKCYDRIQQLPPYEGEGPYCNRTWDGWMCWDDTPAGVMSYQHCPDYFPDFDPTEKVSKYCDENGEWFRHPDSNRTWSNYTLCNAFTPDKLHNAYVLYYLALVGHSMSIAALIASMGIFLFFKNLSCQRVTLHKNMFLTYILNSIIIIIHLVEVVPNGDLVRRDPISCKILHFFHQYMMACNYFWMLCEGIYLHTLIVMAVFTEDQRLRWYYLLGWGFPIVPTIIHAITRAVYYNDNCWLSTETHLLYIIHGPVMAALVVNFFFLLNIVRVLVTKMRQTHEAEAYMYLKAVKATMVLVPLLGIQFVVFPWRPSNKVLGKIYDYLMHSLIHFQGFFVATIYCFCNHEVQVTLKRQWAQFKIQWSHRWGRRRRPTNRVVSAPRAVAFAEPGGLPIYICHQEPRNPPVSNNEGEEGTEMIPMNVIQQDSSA
T1 sequence (looked up) 2: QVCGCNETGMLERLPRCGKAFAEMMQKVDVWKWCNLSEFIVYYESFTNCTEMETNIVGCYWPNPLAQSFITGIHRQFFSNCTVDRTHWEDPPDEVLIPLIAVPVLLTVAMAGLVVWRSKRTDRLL
The experiment in a line: SPA competition with 125I-rat amylin, membranes of BHK cells with rat calcitonin receptor + rat RAMP3 (Assay VI).

The target in assay [2] is T2, rat calcitonin receptor (rat, UniProt P32214 25-516).
T2 construct: whole, on cells; Membranes of transiently transfected BHK tk'ts 13 cells (Assay VIII); also called rCTR
T2 sequence (looked up): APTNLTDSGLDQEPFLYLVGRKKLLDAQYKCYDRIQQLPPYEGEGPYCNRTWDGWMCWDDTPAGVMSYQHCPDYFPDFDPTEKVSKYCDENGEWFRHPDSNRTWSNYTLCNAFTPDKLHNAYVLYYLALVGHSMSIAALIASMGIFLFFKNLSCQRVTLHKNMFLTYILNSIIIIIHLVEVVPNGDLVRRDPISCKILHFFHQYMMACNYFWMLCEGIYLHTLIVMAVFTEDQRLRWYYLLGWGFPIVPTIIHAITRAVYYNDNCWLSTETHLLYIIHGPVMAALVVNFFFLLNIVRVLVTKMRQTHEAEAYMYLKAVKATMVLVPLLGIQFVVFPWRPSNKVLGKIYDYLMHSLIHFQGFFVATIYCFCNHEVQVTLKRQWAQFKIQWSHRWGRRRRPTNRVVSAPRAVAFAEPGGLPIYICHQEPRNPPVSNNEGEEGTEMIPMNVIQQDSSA
The experiment in a line: ratio IC50 rat calcitonin receptor / IC50 rat amylin receptor (reference).

Assay [3] has as its target T3, human calcitonin receptor (human, UniProt P30988 25-474).
T3 construct: whole, on cells; Membranes of a stably transfected BHK cell line (Assay VII); also called hCTR; hCT
T3 sequence (looked up): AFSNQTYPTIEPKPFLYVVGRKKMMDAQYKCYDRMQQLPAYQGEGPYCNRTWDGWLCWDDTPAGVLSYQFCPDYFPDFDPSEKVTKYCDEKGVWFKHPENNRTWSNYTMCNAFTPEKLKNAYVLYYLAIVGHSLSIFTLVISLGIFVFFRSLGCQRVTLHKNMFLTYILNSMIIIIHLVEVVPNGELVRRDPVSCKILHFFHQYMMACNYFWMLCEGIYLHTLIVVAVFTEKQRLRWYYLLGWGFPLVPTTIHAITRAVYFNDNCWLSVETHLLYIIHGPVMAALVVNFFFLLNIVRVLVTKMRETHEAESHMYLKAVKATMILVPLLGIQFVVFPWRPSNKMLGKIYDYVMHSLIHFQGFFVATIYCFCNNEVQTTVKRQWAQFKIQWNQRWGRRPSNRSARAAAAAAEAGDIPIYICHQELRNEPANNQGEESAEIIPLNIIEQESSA
As to the kind of experiment: ratio IC50 human calcitonin receptor / IC50 human amylin receptor (reference). The gist of the method:
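Competition binding by SPA uses membrane preparations (35 ng/μL final) in pH 7.4 Hepes buffer with 1 mM CaCl2 and 5 mM MgCl₂. Incubation lasts 120 min at 25° C, and IC₅₀ comes from one-site fitting.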

The target in assay [4] is T2, rat calcitonin receptor. As to the kind of experiment: SPA competition with 125I-calcitonin, membranes of BHK cells with rat calcitonin receptor (Assay VIII).

What is called IC50 is the point on the concentration scale where inhibition reaches its midpoint.

Numbered stars: 1 amine (or outer) side, 2 acyl side, 3 side chain; on linkers, the order of the positions; unused ones are H or OH. Bridge positions count the residues as written; N and C are the ends. Side chains are listed from the residue outwards. Ends that are not written are not given here. * marks the point of attachment. C20 diacid = O=C(O)CCCCCCCCCCCCCCCCCCC(=O)*; γGlu = O=C(O)[C@H](CCC(=O)[*:2])N[*:1]

B1: N^ε1-[(4S)-4-carboxy-4-[[(4S)-4-carboxy-4-(19-carboxynonadecanoylamino)butanoyl]amino]butanoyl]-[Glu14,Arg17,Pro21,Pro27,Arg35]-h-amylin (peptide)
peptide: K([γGlu-γGlu-C20 diacid])CNTATCATQRLAEFLRHSSPNFGAIPSSTNVGSRTY-NH2
modifications: disulfide 2-7; N-terminus assumed
SMILES: CC[C@H](C)[C@H](NC(=O)[C@H](C)NC(=O)CNC(=O)[C@H](Cc1ccccc1)NC(=O)[C@H](CC(N)=O)NC(=O)[C@@H]1CCCN1C(=O)[C@H](CO)NC(=O)[C@H](CO)NC(=O)[C@H](Cc1c[nH]cn1)NC(=O)[C@H](CCCNC(=N)N)NC(=O)[C@H](CC(C)C)NC(=O)[C@H](Cc1ccccc1)NC(=O)[C@H](CCC(=O)O)NC(=O)[C@H](C)NC(=O)[C@H](CC(C)C)NC(=O)[C@H](CCCNC(=N)N)NC(=O)[C@H](CCC(N)=O)NC(=O)[C@@H](NC(=O)[C@H](C)NC(=O)[C@@H]1CSSC[C@H](NC(=O)[C@@H](N)CCCCNC(=O)CC[C@H](NC(=O)CC[C@H](NC(=O)CCCCCCCCCCCCCCCCCCC(=O)O)C(=O)O)C(=O)O)C(=O)N[C@@H](CC(N)=O)C(=O)N[C@@H]([C@@H](C)O)C(=O)N[C@@H](C)C(=O)N[C@@H]([C@@H](C)O)C(=O)N1)[C@@H](C)O)C(=O)N1CCC[C@H]1C(=O)N[C@@H](CO)C(=O)N[C@@H](CO)C(=O)N[C@H](C(=O)N[C@@H](CC(N)=O)C(=O)N[C@H](C(=O)NCC(=O)N[C@@H](CO)C(=O)N[C@@H](CCCNC(=N)N)C(=O)N[C@H](C(=O)N[C@@H](Cc1ccc(O)cc1)C(N)=O)[C@@H](C)O)C(C)C)[C@@H](C)O
notes: also called compound 89
Consider B1, for which the half-maximal inhibitory concentration (IC50) in assay [1] is 2.37 nM; in the assay with rat calcitonin receptor [4], 115 nM. Besides, the “Ratio rCT/rAmylin binding” value in the assay with rat calcitonin receptor [2] turned out to be 48.8. The “Ratio hCT/hAmylin binding” value in assay [3] worked out at 28.

B2: N^ε1-[(4S)-4-carboxy-4-[[(4S)-4-carboxy-4-(19-carboxynonadecanoylamino)butanoyl]amino]butanoyl]-[Glu14,Arg17,Pro21,Pro27,His34,Glu35]-h-amylin (peptide)
peptide: K([γGlu-γGlu-C20 diacid])CNTATCATQRLAEFLRHSSPNFGAIPSSTNVGHETY-NH2
modifications: disulfide 2-7; N-terminus assumed
SMILES: CC[C@H](C)[C@H](NC(=O)[C@H](C)NC(=O)CNC(=O)[C@H](Cc1ccccc1)NC(=O)[C@H](CC(N)=O)NC(=O)[C@@H]1CCCN1C(=O)[C@H](CO)NC(=O)[C@H](CO)NC(=O)[C@H](Cc1c[nH]cn1)NC(=O)[C@H](CCCNC(=N)N)NC(=O)[C@H](CC(C)C)NC(=O)[C@H](Cc1ccccc1)NC(=O)[C@H](CCC(=O)O)NC(=O)[C@H](C)NC(=O)[C@H](CC(C)C)NC(=O)[C@H](CCCNC(=N)N)NC(=O)[C@H](CCC(N)=O)NC(=O)[C@@H](NC(=O)[C@H](C)NC(=O)[C@@H]1CSSC[C@H](NC(=O)[C@@H](N)CCCCNC(=O)CC[C@H](NC(=O)CC[C@H](NC(=O)CCCCCCCCCCCCCCCCCCC(=O)O)C(=O)O)C(=O)O)C(=O)N[C@@H](CC(N)=O)C(=O)N[C@@H]([C@@H](C)O)C(=O)N[C@@H](C)C(=O)N[C@@H]([C@@H](C)O)C(=O)N1)[C@@H](C)O)C(=O)N1CCC[C@H]1C(=O)N[C@@H](CO)C(=O)N[C@@H](CO)C(=O)N[C@H](C(=O)N[C@@H](CC(N)=O)C(=O)N[C@H](C(=O)NCC(=O)N[C@@H](Cc1c[nH]cn1)C(=O)N[C@@H](CCC(=O)O)C(=O)N[C@H](C(=O)N[C@@H](Cc1ccc(O)cc1)C(N)=O)[C@@H](C)O)C(C)C)[C@@H](C)O
On to B2, for which the results for the IC50 (in assay [1]; with rat calcitonin receptor [4]) were 3.14 nM and 498 nM, respectively. Besides, the “Ratio rCT/rAmylin binding” value with rat calcitonin receptor [2] came to 159. The “Ratio hCT/hAmylin binding” value in assay [3] worked out at 29.1.

B3: N^ε1-[(4S)-4-carboxy-4-[[(4S)-4-carboxy-4-(19-carboxynonadecanoylamino)butanoyl]amino]butanoyl]-[Glu14,Arg17,Pro21,Pro27,Pro34,Glu35]-h-amylin (peptide)
peptide: K([γGlu-γGlu-C20 diacid])CNTATCATQRLAEFLRHSSPNFGAIPSSTNVGPETY-NH2
modifications: disulfide 2-7; N-terminus assumed
SMILES: CC[C@H](C)[C@H](NC(=O)[C@H](C)NC(=O)CNC(=O)[C@H](Cc1ccccc1)NC(=O)[C@H](CC(N)=O)NC(=O)[C@@H]1CCCN1C(=O)[C@H](CO)NC(=O)[C@H](CO)NC(=O)[C@H](Cc1c[nH]cn1)NC(=O)[C@H](CCCNC(=N)N)NC(=O)[C@H](CC(C)C)NC(=O)[C@H](Cc1ccccc1)NC(=O)[C@H](CCC(=O)O)NC(=O)[C@H](C)NC(=O)[C@H](CC(C)C)NC(=O)[C@H](CCCNC(=N)N)NC(=O)[C@H](CCC(N)=O)NC(=O)[C@@H](NC(=O)[C@H](C)NC(=O)[C@@H]1CSSC[C@H](NC(=O)[C@@H](N)CCCCNC(=O)CC[C@H](NC(=O)CC[C@H](NC(=O)CCCCCCCCCCCCCCCCCCC(=O)O)C(=O)O)C(=O)O)C(=O)N[C@@H](CC(N)=O)C(=O)N[C@@H]([C@@H](C)O)C(=O)N[C@@H](C)C(=O)N[C@@H]([C@@H](C)O)C(=O)N1)[C@@H](C)O)C(=O)N1CCC[C@H]1C(=O)N[C@@H](CO)C(=O)N[C@@H](CO)C(=O)N[C@H](C(=O)N[C@@H](CC(N)=O)C(=O)N[C@H](C(=O)NCC(=O)N1CCC[C@H]1C(=O)N[C@@H](CCC(=O)O)C(=O)N[C@H](C(=O)N[C@@H](Cc1ccc(O)cc1)C(N)=O)[C@@H](C)O)C(C)C)[C@@H](C)O
For B3, the IC50 worked out at 0.182 nM in assay [1] and 16.1 nM in the assay with rat calcitonin receptor [4]. For the same molecule, in the assay with rat calcitonin receptor [2], the “Ratio rCT/rAmylin binding” value came out at 88.5. Also, the “Ratio hCT/hAmylin binding” value in assay [3] was 17.6.

B4: N^ε1-[(4S)-4-carboxy-4-[[(4S)-4-carboxy-4-(19-carboxynonadecanoylamino)butanoyl]amino]butanoyl]-[Glu14,Arg17,Pro21,Pro31,Pro34,Glu35]-h-amylin (peptide)
peptide: K([γGlu-γGlu-C20 diacid])CNTATCATQRLAEFLRHSSPNFGAILSSTPVGPETY-NH2
modifications: disulfide 2-7 (inferred)
With B4, the 50% inhibitory concentration (IC50) in assay [1] amounted to 0.449 nM; in the assay with rat calcitonin receptor [4], 33.5 nM. Besides, the “Ratio rCT/rAmylin binding” value in the assay with rat calcitonin receptor [2] was determined as 74.7. In addition, the “Ratio hCT/hAmylin binding” value in assay [3] came out at 22.6.

B5: N^ε1-[(4S)-4-carboxy-4-[[(4S)-4-carboxy-4-(19-carboxynonadecanoylamino)butanoyl]amino]butanoyl]-[Glu14,Arg17,Pro21,Pro27,Pro34,Arg35]-h-amylin (peptide)
peptide: K([γGlu-γGlu-C20 diacid])CNTATCATQRLAEFLRHSSPNFGAIPSSTNVGPRTY-NH2
modifications: disulfide 2-7; N-terminus assumed
SMILES: CC[C@H](C)[C@H](NC(=O)[C@H](C)NC(=O)CNC(=O)[C@H](Cc1ccccc1)NC(=O)[C@H](CC(N)=O)NC(=O)[C@@H]1CCCN1C(=O)[C@H](CO)NC(=O)[C@H](CO)NC(=O)[C@H](Cc1c[nH]cn1)NC(=O)[C@H](CCCNC(=N)N)NC(=O)[C@H](CC(C)C)NC(=O)[C@H](Cc1ccccc1)NC(=O)[C@H](CCC(=O)O)NC(=O)[C@H](C)NC(=O)[C@H](CC(C)C)NC(=O)[C@H](CCCNC(=N)N)NC(=O)[C@H](CCC(N)=O)NC(=O)[C@@H](NC(=O)[C@H](C)NC(=O)[C@@H]1CSSC[C@H](NC(=O)[C@@H](N)CCCCNC(=O)CC[C@H](NC(=O)CC[C@H](NC(=O)CCCCCCCCCCCCCCCCCCC(=O)O)C(=O)O)C(=O)O)C(=O)N[C@@H](CC(N)=O)C(=O)N[C@@H]([C@@H](C)O)C(=O)N[C@@H](C)C(=O)N[C@@H]([C@@H](C)O)C(=O)N1)[C@@H](C)O)C(=O)N1CCC[C@H]1C(=O)N[C@@H](CO)C(=O)N[C@@H](CO)C(=O)N[C@H](C(=O)N[C@@H](CC(N)=O)C(=O)N[C@H](C(=O)NCC(=O)N1CCC[C@H]1C(=O)N[C@@H](CCCNC(=N)N)C(=O)N[C@H](C(=O)N[C@@H](Cc1ccc(O)cc1)C(N)=O)[C@@H](C)O)C(C)C)[C@@H](C)O
notes: also called compound 110
Consider B5, for which the 50% inhibitory concentration (IC50) in assay [1] amounted to 0.339 nM; in the assay with rat calcitonin receptor [4], 38.3 nM. The “Ratio rCT/rAmylin binding” value with rat calcitonin receptor [2] amounted to 113. For the same molecule, the “Ratio hCT/hAmylin binding” value in assay [3] amounted to 53.6.
